Reference: patent US20260049146A1 (PARAGON THERAPEUTICS, published 2026)

The binders below were run against T1, Recombinant in-house Human FcRn protein (human, UniProt P55899 24-297; P61769 21-119) (assay: competition ELISA, huFcRn coated, pH 6.0, competitor biotinylated human IgG1; reference PAL02-0002).
T1 construct: also called HuFcRn; huFcRn
Method: A competitive binding ELISA assay was used to screen for molecules that prevent IgG from binding to recombinant in-house human FcRn protein at pH 6.0. Candidate therapeutics prevent FcRn from binding IgG Abs in the acidic pH 6.0 endosomal environment. […] IC50 values were calculated using GraphPad Prism 7 software applying a nonlinear regression (curve fit) of a log (antagonist) vs. response—variable slop (four parameters).

Binder | IC50 as a ratio to Efgartigimod [ratio] | fold lower IC50 than Efgartigimod [fold]
Construct 1 PAL02-0195 (IgG1 Fc_M252Y/S254T/T256E/M428L/H433K/N434F) (other, Fc fragment variant) DKTHTCPPCPAPELLGGPSVFLFPPKPKDTLYITREPEVTCVVVDVSHEDPEVKFNWYVDGVEVHNAKTKPREEQYNSTYRVVSVLTVLHQDWLNGKEYKCKVSNKALPAPIEKTISKAKGQPREPQVYTLPPSRDELTKNQVSLTCLVKGFYPSDIAVEWESNGQPENNYKTTPPVLDSDGSFFLYSKLTVDKSRWQQGNVFSCSVLHEALKFHYTQKSLSLSPG | ~0.5 | –
Construct 3 PAL02-0197 (IgG1 Fc_M252Y/S254T/T256E/H433K/N434Y) (other, Fc fragment variant) DKTHTCPPCPAPELLGGPSVFLFPPKPKDTLYITREPEVTCVVVDVSHEDPEVKFNWYVDGVEVHNAKTKPREEQYNSTYRVVSVLTVLHQDWLNGKEYKCKVSNKALPAPIEKTISKAKGQPREPQVYTLPPSRDELTKNQVSLTCLVKGFYPSDIAVEWESNGQPENNYKTTPPVLDSDGSFFLYSKLTVDKSRWQQGNVFSCSVMHEALKYHYTQKSLSLSPG | ~0.5 | 3.5

More lines, now with the values ahead:

IC50 as a ratio to Efgartigimod [ratio] | fold lower IC50 than Efgartigimod [fold] | Binder
~0.5 | – | Construct 6 PAL02-0202 (IgG1 Fc_M252Y/S254T/T256E/H433R/N434F) (other, Fc fragment variant) DKTHTCPPCPAPELLGGPSVFLFPPKPKDTLYITREPEVTCVVVDVSHEDPEVKFNWYVDGVEVHNAKTKPREEQYNSTYRVVSVLTVLHQDWLNGKEYKCKVSNKALPAPIEKTISKAKGQPREPQVYTLPPSRDELTKNQVSLTCLVKGFYPSDIAVEWESNGQPENNYKTTPPVLDSDGSFFLYSKLTVDKSRWQQGNVFSCSVMHEALRFHYTQKSLSLSPG
~0.5 | – | Construct 4 PAL02-0198 (IgG1 Fc_M252Y/S254T/T256E/M428L/N434F) (other, Fc fragment variant) DKTHTCPPCPAPELLGGPSVFLFPPKPKDTLYITREPEVTCVVVDVSHEDPEVKFNWYVDGVEVHNAKTKPREEQYNSTYRVVSVLTVLHQDWLNGKEYKCKVSNKALPAPIEKTISKAKGQPREPQVYTLPPSRDELTKNQVSLTCLVKGFYPSDIAVEWESNGQPENNYKTTPPVLDSDGSFFLYSKLTVDKSRWQQGNVFSCSVLHEALHFHYTQKSLSLSPG
~0.5 | – | Construct 5 PAL02-0200 (IgG1 Fc_M252Y/S254T/T256E/H433R/N434Y) (other, Fc fragment variant) DKTHTCPPCPAPELLGGPSVFLFPPKPKDTLYITREPEVTCVVVDVSHEDPEVKFNWYVDGVEVHNAKTKPREEQYNSTYRVVSVLTVLHQDWLNGKEYKCKVSNKALPAPIEKTISKAKGQPREPQVYTLPPSRDELTKNQVSLTCLVKGFYPSDIAVEWESNGQPENNYKTTPPVLDSDGSFFLYSKLTVDKSRWQQGNVFSCSVMHEALRYHYTQKSLSLSPG
